From the supplement of paper PMC7877785
± gives the uncertainty stated by the source.

Experiment: self-splicing fitness, log relative to wild type (ln ratio); higher = more splicing; Tetrahymena group I intron in knt gene, E. coli kanamycin selection, DiMSum; sequences stand for … in CUCUCU…GGAGGGAAAAGUUAUCAGGCAUGCACCUGGUAGCUAGUCUUUAAACCAAUAGAUUGCAUCGGUUUAAAAGGCAAGACCGUCAAAUUGCGGGAAAGGGGUCAACAGCCGUUCAGUACCAAGUCUCAGGGGAAACUUUGAGAUGGCCUUGCAAAGGGUAUGGUAAUAAGCUGACGGACAUGGUCCUAACCACGCAGCCAAGUCCUAAGUCAACAGAUCUUCUGUUGAUAUGGAUGCAGUUCACAGACUAAAUGUCGGUCGGGGAAGAUGUAUUCUUCUCAUAAGAUAUAGUCGGACCUCUCCUUAAUGGGAGCUAGCGGAUGAAGUGAUGCAACACUGGAGCCGCUGGGAACUAAUUUGUAUGCGAAAGUAUAUUGAUUAGUUUUGGAGUACUCGUGGUCG
Summary of the method: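 Fitness was computed with DiMSum as the error-weighted combination of replicate fold changes, kanamycin versus none, each normalised to wild type. The library randomised all eight intron nucleotides of the P1ex region, with the intron placed in the knt kanamycin-resistance gene on pET-22b(+) in E. coli BL21(DE3). Six replicate transformations were grown overnight at 37°C or 30°C on LB agar with or without 25 μg/mL kanamycin, plus 100 μg/mL carbenicillin, 50 μM IPTG and 0.2% rhamnose. Pooled colonies were amplicon-sequenced on an Illumina HiSeq 2500.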

Row | Sequence | self-splicing fitness (ln) (30 °C) | self-splicing fitness (ln) (37 °C)
1 | CGGGAGCAAUAUUACGACUU | -1.58 ± 0.37 | -1.83 ± 0.49
2 | CCAAAGCAAUAUUACGUCAG | -1.64 ± 0.065 | -0.149 ± 0.08
3 | GCCUAGCAAUAUUACGUUGG | -3.78 ± 0.32 | -2.7 ± 0.25
4 | CCUAAGCAAUAUUACGGGAU | -4.35 ± 0.22 | -3.29 ± 0.21
5 | GGUAAGCAAUAUUACGACAC | -0.00191 ± 0.13 | 0.285 ± 0.19
6 | UUUGAGCAAUAUUACGGUUA | -2 ± 0.17 | -1.57 ± 0.15
7 | UGGAAGCAAUAUUACGAGGA | -2.94 ± 0.4 | -2.82 ± 0.4
8 | CCGCAGCAAUAUUACGAUAG | -0.786 ± 0.052 | 0.602 ± 0.07
9 | AGCUAGCAAUAUUACGAGAC | -2.16 ± 0.24 | -2.14 ± 0.31
10 | GCUUAGCAAUAUUACGUUAU | -1.38 ± 0.093 | -0.881 ± 0.12
11 | AACAAGCAAUAUUACGGUGU | -2.51 ± 0.056 | -1.45 ± 0.068
12 | CUGUAGCAAUAUUACGGAAA | -0.916 ± 0.34 | 
13 | CCGAAGCAAUAUUACGAUCU | -3.36 ± 0.34 | -2.85 ± 0.29
14 | UGGAAGCAAUAUUACGGUAC | -4.18 ± 0.39 | -1.5 ± 0.25
15 | ACGAAGCAAUAUUACGGUUC | -4.09 ± 0.23 | -0.86 ± 0.15
16 | CUCCAGCAAUAUUACGGCUA | -3.19 ± 0.26 | -2.27 ± 0.2
17 | CACGAGCAAUAUUACGCCGC | -2.93 ± 0.35 | -1.33 ± 0.48
18 | GUUUAGCAAUAUUACGUUAG | -2.24 ± 0.21 | -0.81 ± 0.18
19 | AGGCAGCAAUAUUACGUGAC | -3.86 ± 0.21 | -1.84 ± 0.14
20 | GAACAGCAAUAUUACGGAGG | -3.02 ± 0.14 | -2.54 ± 0.2
21 | AGACAGCAAUAUUACGGCCC | -0.119 ± 0.2 | -0.253 ± 0.25

Row | Sequence | self-splicing fitness (ln) (30 °C) | self-splicing fitness (ln) (37 °C)
22 | GCCUAGCAAUAUUACGCCAU |  | -1.68 ± 0.45
23 | ACGUAGCAAUAUUACGUGCC | -1.54 ± 0.22 | -0.492 ± 0.24
24 | CGAUAGCAAUAUUACGAGUC | -2.74 ± 0.19 | -3.73 ± 0.39
25 | CCAGAGCAAUAUUACGGAGG | -2.49 ± 0.18 | -1.87 ± 0.24
26 | CGUUAGCAAUAUUACGCAAC | -2.61 ± 0.49 | -2.01 ± 0.35
27 | GUCAAGCAAUAUUACGGUGC | -2.35 ± 0.12 | -1.72 ± 0.18
28 | GAUGAGCAAUAUUACGCGCU | -1.97 ± 0.23 | -1.88 ± 0.45
29 | UCGUAGCAAUAUUACGUGAC | -1.99 ± 0.26 | 
30 | CCACAGCAAUAUUACGUUGC | -3.44 ± 0.13 | -2.73 ± 0.14
31 | CAGGAGCAAUAUUACGUCUA | -1.43 ± 0.13 | -1.68 ± 0.14
32 | ACCAAGCAAUAUUACGAGAA | -2.87 ± 0.34 | -2.32 ± 0.3
33 | GGGUAGCAAUAUUACGGUAA | -1.28 ± 0.12 | -0.587 ± 0.1
34 | UUUAAGCAAUAUUACGAUUG | -1.36 ± 0.15 | -1.12 ± 0.16
35 | AAUGAGCAAUAUUACGUUAG | -3.2 ± 0.21 | -2.3 ± 0.25
36 | GCACAGCAAUAUUACGACCA | -0.551 ± 0.11 | -0.554 ± 0.14
37 | CGAUAGCAAUAUUACGAAUA | -0.837 ± 0.46 | -1.47 ± 0.46
38 | UUCAAGCAAUAUUACGAGUC | -3.3 ± 0.31 | -1.93 ± 0.26
39 | UCGUAGCAAUAUUACGAUGA | -0.769 ± 0.12 | -0.601 ± 0.13
40 | CCGAAGCAAUAUUACGGGCA |  | -2.82 ± 0.25
41 | GAGAAGCAAUAUUACGUUGA | -3.28 ± 0.21 | -1.19 ± 0.17
42 | GCCGAGCAAUAUUACGACUA | -0.948 ± 0.16 | -2.21 ± 0.27

Row | Sequence | self-splicing fitness (ln) (30 °C) | self-splicing fitness (ln) (37 °C)
43 | CGAUAGCAAUAUUACGUGAU | -3.02 ± 0.1 | -0.808 ± 0.088
44 | UCCUAGCAAUAUUACGGCAA | -2.22 ± 0.2 | -1.95 ± 0.19
45 | UGGUAGCAAUAUUACGGUAC | -3.95 ± 0.4 | -1.43 ± 0.27
46 | UGGGAGCAAUAUUACGGAUU | -4.21 ± 0.31 | -3.06 ± 0.26
47 | ACUCAGCAAUAUUACGAGAC | -2.7 ± 0.24 | -1.87 ± 0.17
48 | UGCAAGCAAUAUUACGCCUA | 0.231 ± 0.073 | 0.0781 ± 0.075
49 | GUUAAGCAAUAUUACGGCUA | 0.289 ± 0.099 | 0.176 ± 0.1
50 | ACUAAGCAAUAUUACGCUAG | -2.68 ± 0.14 | -1.82 ± 0.17
51 | CCCUAGCAAUAUUACGACGA | -3.12 ± 0.24 | -2.61 ± 0.27
52 | UUUGAGCAAUAUUACGUAAG | -1.29 ± 0.056 | -0.487 ± 0.078
53 | UUUAAGCAAUAUUACGGACA | -0.552 ± 0.17 | -0.126 ± 0.16
54 | UAAGAGCAAUAUUACGUUUC | -3.76 ± 0.26 | -2.51 ± 0.39
55 | UGACAGCAAUAUUACGAUAA | -0.561 ± 0.052 | 0.4 ± 0.072
56 | AGGUAGCAAUAUUACGCAGG | -3.433 ± 0.022 | -1.88 ± 0.035
57 | UGCAAGCAAUAUUACGAAGC |  | -1.87 ± 0.4
58 | GAGUAGCAAUAUUACGCUGG | -2.77 ± 0.29 | -1.48 ± 0.25
59 | CACGAGCAAUAUUACGCGUC | -3.19 ± 0.32 | -1.52 ± 0.19
60 | UAGUAGCAAUAUUACGCGCA | -0.614 ± 0.1 | 0.274 ± 0.11
61 | GGGUAGCAAUAUUACGAACA |  | -0.706 ± 0.39
62 | CGCUAGCAAUAUUACGGAAU | -3.52 ± 0.28 | -2.02 ± 0.26
